# Experimental data published in patent publication US20190071490A1, “Preventing Post-Ictal Headaches” (Beth Israel Deaconess Medical Center, Inc., priority 2017, published 2019).
# Tests used:
# [1] = test system: CSD-sensitized central trigeminovascular neurons (HT, WDR) in the spinal trigeminal nucleus; assay: Activation and sensitization of trigeminovascular neurons by cortical spreading depression (CSD); assay type: in vivo, rat; settings: for mean firing rate of HT neurons after CSD: 6 hours after 30 mg/kg i.v.; for mean firing rate of HT neurons before CSD: 4 hours after 30 mg/kg i.v.
# Experimental: Cortical spreading depression (CSD) was induced mechanically by inserting a glass micropipette (tip diameter 25 μm) about 1 mm into the visual cortex for 10 sec. At a propagation rate of 3-5 mm/min, a single wave of CSD was expected to enter the neuronal receptive field within 1-2 min of cortical stimulation. For verification of CSD, cortical activity was recorded (electrocorticogram) with a glass micropipette (0.9% saline, ˜1 megohm, 7 um tip) placed just below the surface of the cerebral cortex (approximately 100 μm). The electrocorticogram electrode was positioned about 6 mm anterior to the visual cortex.
# It was diluted in saline to a final dose of 30 mg/kg and administered intravenously (bolus injection, total volume 0.6-0.7 ml). A corresponding human IgG2 isotype control antibody (isotype-conAb) was also diluted in saline to a final dose of 30 mg/kg and administered intravenously (bolus injection, total volume 1.6-2.0 ml).
# The experimental protocol included two parts. The first part was designed to compare CGRP-mAb vs isotype-conAb effects on spontaneous and induced activity of naïve trigeminovascular neurons, and the second part was designed to test CGRP-mAb vs isotype-conAb effects on the activation and sensitization of trigeminovascular neurons by CSD. Both parts included sampling of WDR and HT neurons in male and female rats. In the first part, the baseline neuronal profile was established by (a) mapping the dural, cutaneous and corneal receptive field; (b) measuring responses (mean spikes/sec) to mechanical stimulation of the dura (with a fixed force), skin (brush, pressure, pinch) and cornea (brush), and (c) measuring spontaneous firing rate (recorded over 30 min prior to treatment). Once the baseline was established, CGRP-mAb or isotype-conAb were administered and receptive fields were remapped, neuronal responses to stimulation of the dura, skin and cornea were re-examined, and the spontaneous activity rate was re-sampled at 1, 2, 3, and 4 hours post-treatment. The resulting values for each measure were then compared with the respective baseline values obtained before treatment. In the second part, CSD was induced 4 hours after administration of CGRP-mAb or isotype-conAb and 2 hours later (i.e., 6 hours after treatment) receptive field size, spontaneous activity rate, and response magnitude to stimulation of the dura, skin and cornea were measured again. The resulting post-CSD values for each measure were then compared with the respective pre-CSD values obtained at the 4-hour post-treatment time. This part was initiated only in cases in which the physiological condition of the rats (heart rate, blood pressure, respiration, end tidal CO2) and the neuronal isolation signal (signal-to-noise ratio ≥1:3) were stable at the 4-hour post-treatment time point.
# To calculate the response magnitude to each stimulus, the mean firing frequency occurring before the onset of the first stimulus (30 min for spontaneous activity, 10 sec for mechanical stimulation of the dura, skin and cornea) was subtracted from the mean firing frequency that occurred throughout the duration of each stimulus. […] A neuron was considered activated when its mean firing rate after CSD exceeded its mean baseline activity by 2 standard deviations of that mean for a period >10 min, which translated to ≥33% increase in activity. […] Mean firing rates of respective values were compared using nonparametric statistics (Wilcoxon signed-ranks test). Two-tailed level of significance was set at 0.05.
# [2] = molecular target: T1, 38A (25-38A) human α-CGRP (Homo sapiens, UniProt P06881); assay: Biacore affinity of G1 Fab to CGRP variant on chip; assay type: binding; settings: 38A (25-38A) on chip, 37° C.
# T1 construct: 25-38A; 24; purchased GenScript Corporation, New Jersey or Global Peptide Services, Colorado
# Experimental: Biacore assay for affinity determination. […] All Biacore assays were conducted in HBS-EP running buffer (10 mM HEPES pH 7.4, 150 mM NaCl, 3 mM EDTA, 0.005% v/v polysorbate P20). CGRP surfaces were prepared by diluting the N-biotinylated CGRP to a concentration of less than 0.001 mg/mL into HBS-EP buffer and injecting it across the SA sensor chip using variable contact times. Low capacity surfaces, corresponding to capture levels <50 response units (RU) were used for high-resolution kinetic studies, whereas high capacity surfaces (about 800 RU of captured CGRP) were used for concentration studies, screening, and solution affinity determinations. […] Samples were typically injected for 1 minute at 100 μL/min and dissociation times of at least 10 minutes were allowed. After each binding cycle, surfaces were regenerated with 25 mM NaOH in 25% v/v ethanol, which was tolerated over hundreds of cycles. An entire titration series (typically generated in duplicate) was fit globally to a 1:1 Langmuir binding model using the BIAevaluation program. This returned a unique pair of association and dissociation kinetic rate constants (respectively, kon and koff) for each binding interaction, whose ratio gave the equilibrium dissociation constant (KD=koff/kon).
# [3] = male and female rats, case-by-case analysis
molecule,measurement,setting,value
"G1: humanized monoclonal anti-CGRP antagonist antibody; heavy chain SEQ ID NO:11, light chain SEQ ID NO:12 (antibody) heavy: EVQLVESGGGLVQPGGSLRLSCAASGFTFSNYWISWVRQAPGKGLEWVAEIRSESDASATHYAEAVKGRFTISRDNAKNSLYLQMNSLRAEDTAVYYCLAYFDYGLAIQNYWGQGTLVTVSSASTKGPSVFPLAPCSRSTSESTAALGCLVKDYFPEPVTVSWNSGALTSGVHTFPAVLQSSGLYSLSSVVTVPSSNFGTQTYTCNVDHKPSNTKVDKTVERKCCVECPPCPAPPVAGPSVFLFPPKPKDTLMISRTPEVTCVVVDVSHEDPEVQFNWYVDGVEVHNAKTKPREEQFNSTFRVVSVLTVVHQDWLNGKEYKCKVSNKGLPSSIEKTISKTKGQPREPQVYTLPPSREEMTKNQVSLTCLVKGFYPSDIAVEWESNGQPENNYKTTPPMLDSDGSFFLYSKLTVDKSRWQQGNVFSCSVMHEALHNHYTQKSLSLSPGK light: EIVLTQSPATLSLSPGERATLSCKASKRVTTYVSWYQQKPGQAPRLLIYGASNRYLGIPARFSGSGSGTDFTLTISSLEPEDFAVYYCSQSYNYPYTFGQGTKLEIKRTVAAPSVFIFPPSDEQLKSGTASVVCLLNNFYPREAKVQWKVDNALQSGNSQESVTEQDSKDSTYSLSSTLTLSKADYEKHKVYACEVTHQGLSSPVTKSFNRGEC",difference between CGRP-mAb and isotype-conAb in HT neurons activated by CSD,[1]; case-by-case analysis,86%
same,difference between CGRP-mAb and isotype-conAb in WDR neurons activated by CSD,[1]; case-by-case analysis,2%
same,HT neurons with expansion of dural receptive fields after CSD (number/total),[1]; female rats,0/6
same,HT neurons with expansion of facial receptive fields after CSD (number/total),[1]; female rats,0/6
same,response of HT neurons to dural indentation with VFH before CSD,[1]; female rats,10.5±1.6 spikes/sec
same,response of HT neurons to brushing the cornea after CSD vs before,"[1]; female rats, 6 HT neurons, p=0.51",remained unchanged
same,mean firing rate of HT neurons after CSD,"[1]; female rats, 2 hours after CSD",5.0±3.4 spikes/sec
same,response of HT neurons to dural indentation with VFH after CSD,"[1]; female rats, 2 hours after CSD, 6 hours after administration",8.1±6.4 spikes/sec
same,mean firing rate of HT neurons before CSD,[1]; female rats,3.3±1.7 spikes/sec
same,"neuronal responses of HT neurons to brush, pressure and pinch after CSD vs before","[1]; male and female rats, 2 hours after CSD, 6 hours after administration",remained unchanged
same,HT neurons activated by CSD (number/total),[1]; [3],2/14
same,WDR neurons activated by CSD (number/total),[1]; [3],5/13
same,HT neurons with expansion of dural receptive fields after CSD (number/total),[1]; male rats,2/8
same,HT neurons with expansion of facial receptive fields after CSD (number/total),[1]; male rats,2/8
same,response of HT neurons to corneal stimulation after CSD,[1]; male rats,9.4±1.8 spikes/sec
same,response of HT neurons to corneal stimulation before CSD,[1]; male rats,10.8±3.3 spikes/sec
same,response of HT neurons to dural indentation with VFH before CSD,[1]; male rats,1.8±0.6 spikes/sec
same,mean firing rate of HT neurons after CSD,"[1]; male rats, 2 hours after CSD",1.9±1.5 spikes/sec
same,response of HT neurons to dural indentation with VFH after CSD,"[1]; male rats, 2 hours after CSD, 6 hours after administration",1.9±1.5 spikes/sec
same,mean firing rate of HT neurons before CSD,[1]; male rats,1.2±0.6 spikes/sec
same,KD (nM),[2],No binding detected
